The target in this assay is MBP + FGFR2 31-406 (ECD + TM) (human) (UniProt P21802). As to the kind of experiment: SEC; main elution fraction (1.5 M NaCl, 0.1% DDM) of a heparin affinity column loaded first with FGF1 and then with refolded MBP-FGFR2 ECD + TM, run on size exclusion chromatography; peaks analysed by SDS-PAGE and western blot (anti-MBP, anti-His-tag).

Results on 1 substance are retold here after article PMC5493969.

As to “MBP + FGFR2 31-406 (ECD + TM) (from UniProt P21802 31-406) (domain or fragment)”, the stoichiometry N (in general, a count of units in the complex or per binding partner) was 2.
